The test deals with wild-type cardiac actin (ACTC), filaments (UniProt P68032 1-377). Briefly: co-sedimentation.

This is an account of results in publication PMC4306385 (Archives of biochemistry and biophysics, 2014).

As a reminder, the Kd is a measure of binding affinity in units of concentration. What is called stoichiometry N is the number of molecules, sites or subunits per partner or assembly.

B1: N-terminal C0C2 fragment of cardiac myosin binding protein-C (cMyBP-C) (domain or fragment)
chain: MPEPGKKPVSAFNKKPRSAEVTAGSAAVFEAETERSGVMVRWQRDGSDITANDKYGLAAEGKRHTLTVRDASPDDQGSYAVIAGSSKVKFDLKVTEPAPPEKAESEVAPGAPEEVPAPATELEESVSSPEGSVSVTQDGSAAEHQGAPDDPIGLFLMRPQDGEVTVGGSIVFSARVAGASLLKPPVVKWFKGKWVDLSSKVGQHLQLHDSYDRASKVYLFELHITDAQTTSAGGYRCEVSTKDKFDSCNFNLTVHEAIGSGDLDLRSAFRRTSLAGAGRRTSDSHEDAGTPDFSSLLKKRDSFRRDSKLEAPAEEDVWEILRQAPPSEYERIAFQHGVEACHRPLKRLKGMKQDEKKSTAFQKKLEPAYQVNKGHKIRLTVELADPDAEVKWLKNGQEIQMSGSKYIFESVGAKRTLTISQCSLADDAAYQCVVGGEKCSTELFVKEP
With B1, the dissociation constant (Kd) came out at 5.02 µM and the “stoichiometry N” value worked out at 0.76 mol/mol actin.
